Source: article PMC6028617, “ADP-Dependent Kinases From the Archaeal Order Methanosarcinales Adapt to Salt by a Non-canonical Evolutionarily Conserved Strategy” (Frontiers in Microbiology, 2018)

B1: MmazPFK/GK (Methanosarcina mazei Go1) (protein)
chain: MDMEEWEQRHNEAFYDAKEALPYLDGMFVAYNSNIDAIRHLDEEALTKLIGFFDEAEIQERVAVYPREIADPLDFIARLLIAMREGKAAEVPTYTEEIHTWLKEHLGFDYARMGGQAGIISNLLARLDLKKVVAYIPWLSAEQAEYFEDNGNILHPKVENGEVVLKTPAEAFNPGMGSKVNWIFEFSKDLKVSCAGSTFKVPRDNRLIISSRPKWIRLDMDRAIYDQLETIFPVDGAMLSGYQMIKEEYEDGSTYKDYVEHSVEVINKLKSLNPDLRIHVELTSIQNRVIRKAILTEIVARHVHSLGLDTVEVANALNVLGYEELSYSVIRKGENGIMSLYQGAVQLMKDLKLERVHVHSLGFYICILAKGHPLTLKEHRDALLFSSVLAASRALHGKIEDLNEAETGLDVPVSAQGLEDLETFKLYCTGRKLCSPDEFEYGYIYGSDHDAILIPSKVVDRPKATVGIGDTISAGAFAAMLARMKQIKSGK
notes: de novo codon-optimized gene in pET-15b, N-terminal poly-His tag, E. coli C41; heat step 50 C, Ni-NTA, HiTrap-Q

Experiments:
[1] = biological target: T1, AncMsPFK/GK (synthetic construct, UniProt Z9Y5W3ZEF0); assay: X-ray crystal structure, […] Å; assay type: binding; details: Mg2+ in active site; Ni2+ at three surface sites; crystals pH 4.5
T1 construct: heat step 80 C, Ni-Sepharose
T1 sequence (Z9Y5W3ZEF0 22-511): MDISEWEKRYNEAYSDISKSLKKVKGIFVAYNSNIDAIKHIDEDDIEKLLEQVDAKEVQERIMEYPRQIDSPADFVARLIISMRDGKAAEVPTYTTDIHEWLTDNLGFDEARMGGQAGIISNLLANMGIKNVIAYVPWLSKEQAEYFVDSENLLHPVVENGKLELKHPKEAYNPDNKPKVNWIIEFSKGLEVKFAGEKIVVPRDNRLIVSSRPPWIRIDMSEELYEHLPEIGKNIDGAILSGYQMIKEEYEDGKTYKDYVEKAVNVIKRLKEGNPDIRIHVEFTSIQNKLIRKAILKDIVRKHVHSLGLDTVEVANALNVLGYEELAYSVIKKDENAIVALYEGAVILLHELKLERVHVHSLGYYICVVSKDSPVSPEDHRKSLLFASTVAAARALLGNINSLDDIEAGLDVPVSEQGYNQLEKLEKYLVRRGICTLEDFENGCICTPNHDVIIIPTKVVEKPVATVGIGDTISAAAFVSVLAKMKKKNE

[2] = substrate: Nc1ncnc2c1ncn2[C@@H]1O[C@H](COP(=O)(O)OP(=O)(O)O)[C@@H](O)[C@H]1O; assay: purified protein; assay type: biochemical, Methanosarcina mazei; details: PFK activity, saturating fructose-6P, 25 mM PIPES pH 6.5, 40 C, as Mg-ADP

Row | Molecule | X-ray crystal structure, 2.86 Å [1] | Km [2] [µM] | kcat [2] [s⁻¹] | kcat/Km [2] [M⁻¹ s⁻¹]
1 | Nc1ncnc2c1ncn2[C@@H]1O[C@H](COP(=O)(O)OP(=O)(O)O)[C@@H](O)[C@H]1O [ADP] | crystals for the ancMsPFK/GK in complex with ADP, which was solved by molecular replacement |  |  | 
2 | B1 |  | 72 ± 9 | 6.1 ± 0.3 | 84500
